Assay results as given in article PMC9609998.

Key:
[1] = target: EGFR (on U87MG EGFR WT glioblastoma cells) (UniProt P00533); experiment: flow cytometry; details: U87 EGFR WT cells, 1 nM-5 µM aptamer; no/low signal on EGFR-negative LN319 cells; 2'-fluoro pyrimidines (2'F-RNA); Flow cytometry: 300,000 cells detached with 0.2 M EDTA, 30 min with Cy5-aptamer; tissue: selection buffer, 2% BSA +/- 100 µg/mL yeast tRNA block, 1 h on ice …
[2] = target: integrin α5β1 (on U87MG α5+ cells) (UniProt P08648+P05556); experiment: flow cytometry; details: 2'-fluoro pyrimidines (2'F-RNA); Flow cytometry: 300,000 cells detached with 0.2 M EDTA, 30 min with Cy5-aptamer; tissue: selection buffer, 2% BSA +/- 100 µg/mL yeast tRNA block, 1 h on ice …; cited from earlier work
integrin α5β1 (on U87MG α5+ cells), sequence (P08648 42-1049, chain 1 of 2): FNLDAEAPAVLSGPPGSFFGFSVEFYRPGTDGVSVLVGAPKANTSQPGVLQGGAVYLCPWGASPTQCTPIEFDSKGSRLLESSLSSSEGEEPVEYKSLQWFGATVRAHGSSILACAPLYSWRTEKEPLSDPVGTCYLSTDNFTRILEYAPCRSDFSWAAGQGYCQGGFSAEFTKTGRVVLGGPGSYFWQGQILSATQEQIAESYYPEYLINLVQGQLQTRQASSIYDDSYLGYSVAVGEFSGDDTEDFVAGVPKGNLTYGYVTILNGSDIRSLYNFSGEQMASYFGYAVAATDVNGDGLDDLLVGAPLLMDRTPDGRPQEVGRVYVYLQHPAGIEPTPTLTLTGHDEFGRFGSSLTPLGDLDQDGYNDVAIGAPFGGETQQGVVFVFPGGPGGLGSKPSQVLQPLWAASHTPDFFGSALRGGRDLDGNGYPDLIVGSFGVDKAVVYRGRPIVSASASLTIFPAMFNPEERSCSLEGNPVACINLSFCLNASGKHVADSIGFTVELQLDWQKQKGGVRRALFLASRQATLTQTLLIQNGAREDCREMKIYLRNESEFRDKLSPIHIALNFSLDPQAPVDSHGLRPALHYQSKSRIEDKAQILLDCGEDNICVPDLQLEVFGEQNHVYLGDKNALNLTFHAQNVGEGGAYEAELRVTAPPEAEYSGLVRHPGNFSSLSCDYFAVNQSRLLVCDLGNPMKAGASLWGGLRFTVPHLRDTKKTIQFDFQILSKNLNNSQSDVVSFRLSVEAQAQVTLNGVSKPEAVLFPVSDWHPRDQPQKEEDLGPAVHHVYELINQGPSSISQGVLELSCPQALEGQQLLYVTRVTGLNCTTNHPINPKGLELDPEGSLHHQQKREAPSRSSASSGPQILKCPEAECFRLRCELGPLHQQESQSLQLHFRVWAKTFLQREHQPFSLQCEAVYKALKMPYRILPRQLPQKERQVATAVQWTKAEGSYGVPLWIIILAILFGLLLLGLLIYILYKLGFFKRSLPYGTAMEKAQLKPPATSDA
integrin α5β1 (on U87MG α5+ cells), sequence (P05556 21-798, chain 2 of 2): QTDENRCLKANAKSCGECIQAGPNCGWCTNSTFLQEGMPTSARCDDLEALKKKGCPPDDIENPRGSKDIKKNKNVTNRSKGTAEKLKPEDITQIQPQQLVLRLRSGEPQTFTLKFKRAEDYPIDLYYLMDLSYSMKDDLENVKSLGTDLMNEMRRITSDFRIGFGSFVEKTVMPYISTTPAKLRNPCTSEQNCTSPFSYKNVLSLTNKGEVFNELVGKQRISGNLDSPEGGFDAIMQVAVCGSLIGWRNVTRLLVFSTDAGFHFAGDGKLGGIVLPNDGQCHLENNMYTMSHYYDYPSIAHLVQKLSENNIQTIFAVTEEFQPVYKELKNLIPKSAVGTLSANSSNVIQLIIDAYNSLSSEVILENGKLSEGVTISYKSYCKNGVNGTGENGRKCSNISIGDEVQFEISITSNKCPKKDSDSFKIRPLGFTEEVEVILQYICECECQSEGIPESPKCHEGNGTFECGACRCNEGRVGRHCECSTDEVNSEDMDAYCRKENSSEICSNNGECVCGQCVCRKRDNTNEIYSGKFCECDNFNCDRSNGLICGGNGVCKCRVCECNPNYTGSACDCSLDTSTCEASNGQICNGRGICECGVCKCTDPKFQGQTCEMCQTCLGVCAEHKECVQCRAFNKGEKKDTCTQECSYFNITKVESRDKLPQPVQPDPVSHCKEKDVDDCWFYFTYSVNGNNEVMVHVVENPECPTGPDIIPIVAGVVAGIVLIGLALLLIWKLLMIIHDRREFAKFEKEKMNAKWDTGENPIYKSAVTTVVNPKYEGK

Sequence | Kd [1] [nM] | Kd [2] [nM]
GGACGGAUUUAAUCGCCGUAGAAAAGCAUGUCAAAGCCGGAACCGUCC [E07-Cy5] | 209 | –
GGUUACCAGCCUUCACUGCGGACGGACAGAGAGUGCAACCUGCCGUGCCGCACCACGGUCGGUCACAC [H02-Cy5] | – | 278
